The values that follow come from PMC4822050, “Hemi-methylated DNA opens a closed conformation of UHRF1 to facilitate its histone recognition” (Nature Communications, 2016).

Usually Kd stands for the constant that tells how readily two partners part at equilibrium. The low end stands for tighter binding, the high end for weaker binding.

Holding throughout (assay): ITC; 0.05 mM protein in the cell, 0.5 mM protein or peptide in the syringe, iTC200, 18 °C, 10 mM HEPES pH 8.0, 100 mM NaCl
Holding throughout (details): both partners purified
(In general: In ITC the heat of successive injections is recorded.)

Assay [1] deals with T1, TTD–PHD of UHRF1 (residues 134–366) (human, UniProt Q96T88 134-366).
T1 sequence (looked up): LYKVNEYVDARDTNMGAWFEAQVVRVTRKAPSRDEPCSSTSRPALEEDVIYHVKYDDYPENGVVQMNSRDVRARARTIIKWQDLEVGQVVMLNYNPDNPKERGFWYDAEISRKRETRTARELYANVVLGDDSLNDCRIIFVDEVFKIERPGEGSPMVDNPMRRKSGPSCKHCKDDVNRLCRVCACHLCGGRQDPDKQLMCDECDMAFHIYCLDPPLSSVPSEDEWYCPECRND

In assay [2] the target is T2, UHRF1^Δ627–674 (human, UniProt Q96T88 1-793, Δ627–674).
T2 construct: also called spacer deletion mutant
T2 sequence (looked up): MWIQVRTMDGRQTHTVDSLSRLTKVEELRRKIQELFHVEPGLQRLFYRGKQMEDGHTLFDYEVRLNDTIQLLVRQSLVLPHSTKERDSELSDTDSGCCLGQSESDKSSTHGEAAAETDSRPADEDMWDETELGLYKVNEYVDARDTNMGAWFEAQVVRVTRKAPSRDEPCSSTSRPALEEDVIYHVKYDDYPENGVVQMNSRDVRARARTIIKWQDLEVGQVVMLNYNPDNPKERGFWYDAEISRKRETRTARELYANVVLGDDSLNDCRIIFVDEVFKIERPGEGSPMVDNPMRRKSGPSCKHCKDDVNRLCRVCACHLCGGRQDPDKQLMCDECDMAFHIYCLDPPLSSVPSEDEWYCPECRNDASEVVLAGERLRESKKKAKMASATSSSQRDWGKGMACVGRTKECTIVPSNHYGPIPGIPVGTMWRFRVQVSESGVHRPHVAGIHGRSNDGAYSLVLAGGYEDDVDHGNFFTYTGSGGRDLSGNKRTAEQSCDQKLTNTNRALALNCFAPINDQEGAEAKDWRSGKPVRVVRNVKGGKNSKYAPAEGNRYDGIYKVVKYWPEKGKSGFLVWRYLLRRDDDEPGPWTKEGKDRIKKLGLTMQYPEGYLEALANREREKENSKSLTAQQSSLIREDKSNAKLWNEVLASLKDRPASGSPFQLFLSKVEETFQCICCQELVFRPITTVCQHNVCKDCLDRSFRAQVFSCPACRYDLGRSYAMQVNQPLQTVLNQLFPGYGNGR

The target in assay [3] is T3, UHRF1^D334A&Δ627–674 (human, UniProt Q96T88 1-793, D334A | Δ627–674).
T3 construct: human UHRF1 (1–793)
T3 sequence (looked up): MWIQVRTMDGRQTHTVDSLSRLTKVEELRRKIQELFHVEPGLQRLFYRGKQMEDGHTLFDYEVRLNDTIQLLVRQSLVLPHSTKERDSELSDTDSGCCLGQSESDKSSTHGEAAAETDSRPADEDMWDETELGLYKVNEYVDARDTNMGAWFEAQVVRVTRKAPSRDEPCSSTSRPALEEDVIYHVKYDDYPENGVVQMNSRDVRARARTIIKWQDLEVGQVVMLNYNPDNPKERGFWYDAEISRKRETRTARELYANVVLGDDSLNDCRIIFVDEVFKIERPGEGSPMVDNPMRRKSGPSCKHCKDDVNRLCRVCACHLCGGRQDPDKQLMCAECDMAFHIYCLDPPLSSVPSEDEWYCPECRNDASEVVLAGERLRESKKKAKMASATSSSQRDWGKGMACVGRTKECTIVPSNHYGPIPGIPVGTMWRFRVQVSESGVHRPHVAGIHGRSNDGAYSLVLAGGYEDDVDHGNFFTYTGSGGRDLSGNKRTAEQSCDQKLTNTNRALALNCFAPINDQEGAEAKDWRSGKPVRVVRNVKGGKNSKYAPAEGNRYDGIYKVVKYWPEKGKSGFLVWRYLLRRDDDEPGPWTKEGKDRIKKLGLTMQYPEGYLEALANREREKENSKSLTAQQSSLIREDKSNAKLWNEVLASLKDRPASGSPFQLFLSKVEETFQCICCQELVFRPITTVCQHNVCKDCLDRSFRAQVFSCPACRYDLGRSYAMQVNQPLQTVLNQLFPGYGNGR

The target of assay [4] is T4, R295D/R296D mutant of full-length UHRF1 (human, UniProt Q96T88 1-793, R295D | R296D).
T4 construct: human UHRF1 (1–793)
T4 sequence (looked up): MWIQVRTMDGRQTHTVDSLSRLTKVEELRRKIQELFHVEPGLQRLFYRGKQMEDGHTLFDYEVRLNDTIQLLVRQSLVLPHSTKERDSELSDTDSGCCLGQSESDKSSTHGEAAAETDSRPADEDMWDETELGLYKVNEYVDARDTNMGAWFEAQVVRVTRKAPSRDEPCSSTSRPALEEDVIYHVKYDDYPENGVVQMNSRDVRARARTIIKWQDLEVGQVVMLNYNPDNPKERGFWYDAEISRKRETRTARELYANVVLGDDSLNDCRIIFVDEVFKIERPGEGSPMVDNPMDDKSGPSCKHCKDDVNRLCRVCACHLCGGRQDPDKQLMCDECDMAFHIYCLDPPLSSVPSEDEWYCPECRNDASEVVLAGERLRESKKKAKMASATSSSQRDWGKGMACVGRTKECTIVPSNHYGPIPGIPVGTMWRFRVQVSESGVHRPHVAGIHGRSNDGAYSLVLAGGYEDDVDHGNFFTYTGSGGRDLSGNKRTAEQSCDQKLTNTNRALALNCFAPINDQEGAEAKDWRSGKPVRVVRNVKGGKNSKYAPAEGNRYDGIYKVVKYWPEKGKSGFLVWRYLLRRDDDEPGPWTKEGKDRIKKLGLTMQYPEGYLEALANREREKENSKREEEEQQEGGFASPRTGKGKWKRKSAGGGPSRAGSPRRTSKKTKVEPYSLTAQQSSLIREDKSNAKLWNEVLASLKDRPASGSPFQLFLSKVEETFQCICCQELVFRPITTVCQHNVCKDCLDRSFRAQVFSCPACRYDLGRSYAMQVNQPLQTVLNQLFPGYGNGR

B1: H3K9me3 peptide (1–17) (peptide, UniProt P68431 2-18, looked up)
peptide: ARTKQTARKSTGGKAPR
modifications: trimethyl-lysine at K9
notes: histone H3, residues 1–17
For the molecule B1, the Kd in assay [1] is 0.15 µM; in assay [3], 8.69 µM. The “fold increase in binding affinity against full-length UHRF1” value in assay [2] came to 4 fold. In addition, in assay [4], the “fold lower binding affinity than wild type” value came to 8 fold.
